Source: patent US20140274782A1 (Stanford University, published 2014)

Tests used:
Assay in all cases: ProtoArray, GST-treated control array;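 also: human protein microarray (about 9500 recombinant proteins) incubated overnight with GST alone plus SAM cofactor as the negative control for G9a SET domain methylation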
[1] = target: TMEM97-transmembrane protein 97 (TMEM97) (human, UniProt Q5BJF2 1-176)
[2] = target: T1, C10orf58-chromosome 10 open reading frame 58 (C10orf58) (human, UniProt Q9BRX8 1-229, limits assumed)
T1 sequence (looked up): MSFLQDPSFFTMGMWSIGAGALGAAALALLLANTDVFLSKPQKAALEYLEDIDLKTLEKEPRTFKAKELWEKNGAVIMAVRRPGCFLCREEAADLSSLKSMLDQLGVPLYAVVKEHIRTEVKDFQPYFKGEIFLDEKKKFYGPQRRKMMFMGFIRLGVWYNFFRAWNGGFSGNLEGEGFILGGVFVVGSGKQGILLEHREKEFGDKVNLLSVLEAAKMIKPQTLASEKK

[3] = target: T2, STK17B-Serine/threonine-protein kinase 17B (human, UniProt O94768 1-372)
T2 sequence (looked up): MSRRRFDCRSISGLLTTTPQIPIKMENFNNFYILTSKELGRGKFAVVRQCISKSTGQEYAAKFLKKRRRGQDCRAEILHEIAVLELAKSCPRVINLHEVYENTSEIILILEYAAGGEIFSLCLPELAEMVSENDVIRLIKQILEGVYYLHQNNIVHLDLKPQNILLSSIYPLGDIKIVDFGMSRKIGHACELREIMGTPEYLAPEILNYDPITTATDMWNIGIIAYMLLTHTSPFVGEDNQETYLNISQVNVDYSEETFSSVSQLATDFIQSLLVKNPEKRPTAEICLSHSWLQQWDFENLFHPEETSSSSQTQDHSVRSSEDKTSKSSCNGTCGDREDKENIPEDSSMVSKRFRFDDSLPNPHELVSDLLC

[4] = target: T3, ZBP1-Z-DNA binding protein 1 (ZBP1) (human, UniProt Q9H171 1-429, limits assumed)
T3 sequence (looked up): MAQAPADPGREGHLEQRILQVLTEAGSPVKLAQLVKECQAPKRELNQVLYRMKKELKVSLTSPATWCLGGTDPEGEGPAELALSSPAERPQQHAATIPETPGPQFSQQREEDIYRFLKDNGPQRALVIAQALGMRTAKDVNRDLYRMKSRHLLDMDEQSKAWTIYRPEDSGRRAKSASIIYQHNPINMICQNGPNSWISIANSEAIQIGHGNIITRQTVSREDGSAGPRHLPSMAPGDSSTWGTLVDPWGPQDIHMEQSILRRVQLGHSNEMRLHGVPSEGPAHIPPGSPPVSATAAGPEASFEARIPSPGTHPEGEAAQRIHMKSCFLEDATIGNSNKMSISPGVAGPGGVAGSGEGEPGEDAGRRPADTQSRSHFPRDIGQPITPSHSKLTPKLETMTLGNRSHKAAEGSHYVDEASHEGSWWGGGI

[5] = target: T4, C11orf73-chromosome 11 open reading frame 73 (C11orf73) (human, UniProt Q53FT3 1-197)
T4 sequence (looked up): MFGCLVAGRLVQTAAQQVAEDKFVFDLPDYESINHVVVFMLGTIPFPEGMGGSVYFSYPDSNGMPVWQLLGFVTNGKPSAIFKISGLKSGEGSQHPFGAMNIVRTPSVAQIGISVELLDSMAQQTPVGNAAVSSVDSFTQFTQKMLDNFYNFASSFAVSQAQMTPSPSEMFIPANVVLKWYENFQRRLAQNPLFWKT

[6] = target: T5, BLCAP-bladder cancer associated protein (BLCAP) (human, UniProt P62952 1-87)
T5 sequence (looked up): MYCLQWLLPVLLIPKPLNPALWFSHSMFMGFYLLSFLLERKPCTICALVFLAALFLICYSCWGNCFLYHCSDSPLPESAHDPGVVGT

[7] = target: T6, KCTD7-potassium channel tetramerisation domain containing 7 (KCTD7) (human, UniProt Q96MP8 1-289, limits assumed)
T6 sequence (looked up): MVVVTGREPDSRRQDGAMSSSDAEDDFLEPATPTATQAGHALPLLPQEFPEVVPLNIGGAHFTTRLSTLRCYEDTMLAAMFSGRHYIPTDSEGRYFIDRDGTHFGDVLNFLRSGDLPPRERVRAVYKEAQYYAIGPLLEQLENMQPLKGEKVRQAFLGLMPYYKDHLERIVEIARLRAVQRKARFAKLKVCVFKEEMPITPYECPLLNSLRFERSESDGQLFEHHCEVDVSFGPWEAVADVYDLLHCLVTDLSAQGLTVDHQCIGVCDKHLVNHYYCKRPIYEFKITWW

[8] = target: T7, CNTD1-Cyclin N-terminal domain-containing protein 1 (human, UniProt Q8N815 1-330)
T7 sequence: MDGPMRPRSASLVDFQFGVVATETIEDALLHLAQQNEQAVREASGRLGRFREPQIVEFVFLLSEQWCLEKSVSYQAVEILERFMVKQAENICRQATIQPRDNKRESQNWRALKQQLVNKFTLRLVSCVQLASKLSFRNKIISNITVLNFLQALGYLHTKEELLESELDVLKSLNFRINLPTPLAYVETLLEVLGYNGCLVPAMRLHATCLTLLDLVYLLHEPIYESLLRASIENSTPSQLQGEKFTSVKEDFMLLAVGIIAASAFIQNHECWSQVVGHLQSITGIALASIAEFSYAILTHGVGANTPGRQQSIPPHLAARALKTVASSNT

[9] = target: CDC2-cell division cycle 2, G1 to S and G2 to M (CDC2), transcript variant 1 (human, UniProt P06493 1-297)
Sequence of CDC2-cell division cycle 2, G1 to S and G2 to M (CDC2), transcript variant 1 (P06493 whole entry, change not shown): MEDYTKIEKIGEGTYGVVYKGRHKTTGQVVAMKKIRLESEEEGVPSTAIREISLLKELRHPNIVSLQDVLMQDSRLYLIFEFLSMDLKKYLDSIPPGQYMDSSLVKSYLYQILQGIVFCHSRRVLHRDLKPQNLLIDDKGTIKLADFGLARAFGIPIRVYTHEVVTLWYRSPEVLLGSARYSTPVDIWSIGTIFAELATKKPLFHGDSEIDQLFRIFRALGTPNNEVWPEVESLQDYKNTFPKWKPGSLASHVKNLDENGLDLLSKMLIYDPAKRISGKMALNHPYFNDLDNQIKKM

[10] = target: T8, Magmas-mitochondria-associated protein involved in granulocyte-macrophage colony-stimulating factor signal … (human, UniProt Q9Y3D7 1-125)
T8 sequence (looked up): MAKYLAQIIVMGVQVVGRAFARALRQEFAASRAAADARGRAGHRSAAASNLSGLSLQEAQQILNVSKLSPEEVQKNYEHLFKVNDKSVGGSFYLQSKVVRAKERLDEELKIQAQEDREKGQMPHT

Sequence of TMEM97-transmembrane protein 97 (TMEM97) (Q5BJF2 whole entry): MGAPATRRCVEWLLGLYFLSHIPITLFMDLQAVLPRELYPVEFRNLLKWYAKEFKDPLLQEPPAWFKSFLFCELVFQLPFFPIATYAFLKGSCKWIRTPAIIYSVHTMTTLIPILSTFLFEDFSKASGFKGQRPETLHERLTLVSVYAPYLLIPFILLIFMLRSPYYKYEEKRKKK

- GST Average SNR [1]: -1.53
- GST Average SNR [2]: 0.966
- GST Average SNR [3]: 0.575
- GST Average SNR [4]: 0.628
- GST Average SNR [5]: -1.4
- GST Average SNR [6]: 0.932
- GST Average SNR [7]: 1.09
- GST Average SNR [8]: 0.567
- GST Average SNR [9]: -0.696
- GST Average SNR [10]: -1.16
B1: 3× Flag-3×MBT (designed binder)
chain: EEWSSSQPATGEKKECWSWESYLEEQKAITAPVSLFQDSQAVTHNKNGFKLGMKLEGIDPQHPSMYFILTVAEVCGYRLRLHFDGYSECHDFWVNANSPDIHPAGWFEKTGHKLQPPKGYKEEEFSWSQYLRSTRAQAAPKHLFVSQSHSPPPLGFQVGMKLEAVDRMNPSLVCVASVTDVVDSRFLVHFDNWDDTYDYWCDPSSPYIHPVGWCQKQGKPLTPPQDYPDPDNFCWEKYLEETGASAVPTWAFKVRPPHSFLVNMKLEAVDRRNPALIRVASVEDVEDHRIKIHFDGWSHGYDFWIDADHPDIHPAGWCSKTGHPLQPPLGPREPSSASPGG
notes: also called Flag-tagged 3×MBT; 3xFlag-3xMBT; not shown: made by PreScission cleavage of GST-3× Flag-3×MBT
